Assay results reported in the supplement of paper PMC5998384.

Columns and labels:
[1] = tested on: HeLa Kyoto; experiment: solubility in G1/S (NP-40 vs SDS abundance) (log2 ratio); higher = more soluble; details: cell cycle stage: G1/S
[2] = tested on: HeLa Kyoto; experiment: melting temperature (median over replicates), in situ; higher = more thermally stable
[3] = tested on: HeLa Kyoto; experiment: solubility change mitosis vs G1/S (difference of NP-40 vs SDS log2 ratios) (log2 ratio difference); higher = more soluble in mitosis
[4] = tested on: HeLa Kyoto; experiment: thermal stability score vs G1/S (z-score of summed log2 fold changes over temperatures); higher = more thermally stable than in G1/S
[5] = cell cycle stage: early G1 (4.5 h after nocodazole release)
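Throughout, for melting temperature (median over replicates), in situ: HeLa Kyoto cells synchronized by double thymidine or nocodazole block, proteins quantified by TMT10plex mass spectrometry, three independent biological replicates.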
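Throughout, for solubility change mitosis vs G1/S (difference of NP-40 vs SDS log2 ratios): synchronized HeLa Kyoto cells (double thymidine block for G1/S, nocodazole release for mitosis), protein amounts in NP-40 versus SDS lysates quantified by mass spectrometry, three biological replicates.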
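Throughout, for solubility in G1/S (NP-40 vs SDS abundance): HeLa Kyoto cells arrested at G1/S by double thymidine block, proteins quantified by TMT10plex mass spectrometry in mild NP-40 versus SDS extracts, three biological replicates.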
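Throughout, for thermal stability score vs G1/S (z-score of summed log2 fold changes over temperatures): synchronized HeLa Kyoto cells, proteins quantified by TMT10plex mass spectrometry, three biological replicates, mitosis taken 0.5 h after nocodazole release, G1/S directly after double thymidine block.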

| Sequence | solubility in G1/S (log2) [1] | melting temperature ([2]; cell cycle stage: G1/S) | melting temperature ([2]; cell cycle stage: mitosis) | solubility change mitosis (log2) [3] | thermal stability score [4, 5] | thermal stability score ([4]; cell cycle stage: mitosis) |
| --- | --- | --- | --- | --- | --- | --- |
| MGEFNEKKTTCGTVCLKYLLFTYNCCFWLAGLAVMAVGIWTLALKSDYISLLASGTYLATAYILVVAGTVVMVTGVLGCCATFKERRNLLRLYFILLLIIFLLEIIAGILAYAYYQQLNTELKENLKDTMTKRYHQPGHEAVTSAVDQLQQEFHCCGSNNSQDWRDSEWIRSQEAGGRVVPDSCCKTVVALCGQRDHASNIYKVEGGCITKLETFIQEHLRVIGAVGIGIACVQVFGMIFTCCLYRSLKLEHY [CD151] | -0.288 | 60 °C | 61.3 °C | 0.0099 | 0.401 | -1.63 |
| MGEKSENCGVPEDLLNGLKVTDTQEAECAGPPVPDPKNQHSQSKLLRDDEAHLQEDQGEEECFHDCSASFEEEPGADKVENKSNEDVNSSELDEEYLIELEKNMSDEEKQKRREESTRLKEEGNEQFKKGDYIEAESSYSRALEMCPSCFQKERSILFSNRAAARMKQDKKEMAINDCSKAIQLNPSYIRAILRRAELYEKTDKLDEALEDYKSILEKDPSIHQAREACMRLPKQIEERNERLKEEMLGKLKDLGNLVLRPFGLSTENFQIKQDSSTGSYSINFVQNPNNNR [TTC1] | 0.455 | 56.2 °C | 56.4 °C | 0.183 | -3 | -2.41 |
| MGEPQGSMRILVTGGSGLVGKAIQKVVADGAGLPGEDWVFVSSKDADLTDTAQTRALFEKVQPTHVIHLAAMVGGLFRNIKYNLDFWRKNVHMNDNVLHSAFEVGARKVVSCLSTCIFPDKTTYPIDETMIHNGPPHNSNFGYSYAKRMIDVQNRAYFQQYGCTFTAVIPTNVFGPHDNFNIEDGHVLPGLIHKVHLAKSSGSALTVWGTGNPRRQFIYSLDLAQLFIWVLREYNEVEPIILSVGEEDEVSIKEAAEAVVEAMDFHGEVTFDTTKSDGQFKKTASNSKLRTYLPDFRFTPFKQAVKETCAWFTDNYEQARK [TSTA3] | 0.141 | 59.3 °C | 58.2 °C | -0.116 | -3.68 | -2.17 |
| MGFGDLKSPAGLQVLNDYLADKSYIEGYVPSQADVAVFEAVSSPPPADLCHALRWYNHIKSYEKEKASLPGVKKALGKYGPADVEDTTGSGATDSKDDDDIDLFGSDDEEESEEAKRLREERLAQYESKKAKKPALVAKSSILLDVKPWDDETDMAKLEECVRSIQADGLVWGSSKLVPVGYGIKKLQIQCVVEDDKVGTDMLEEQITAFEDYVQSMDVAAFNKI [EEF1B2] | 0.522 | 50.7 °C | 50.6 °C | 0.236 | -1.43 | -1.91 |
| MGHPPLLPLLLLLHTCVPASWGLRCMQCKTNGDCRVEECALGQDLCRTTIVRLWEEGEELELVEKSCTHSEKTNRTLSYRTGLKITSLTEVVCGLDLCNQGNSGRAVTYSRSRYLECISCGSSDMSCERGRHQSLQCRSPEEQCLDVVTHWIQEGEEGRPKDDRHLRGCGYLPGCPGSNGFHNNDTFHFLKCCNTTKCNEGPILELENLPQNGRQCYSCKGNSTHGCSSEETFLIDCRGPMNQCLVATGTHEPKNQSYMVRGCATASMCQHAHLGDAFSMNHIDVSCCTKSGCNHPDLDVQYRSGAAPQPGPAHLSLTITLLMTARLWGGTLLWT [PLAUR] | 0.19 | 52.8 °C | 56.2 °C | -0.232 | 0.197 | 4.92 |
| MGKGDPKKPRGKMSSYAFFVQTCREEHKKKHPDASVNFSEFSKKCSERWKTMSAKEKGKFEDMAKADKARYEREMKTYIPPKGETKKKFKDPNAPKRPPSAFFLFCSEYRPKIKGEHPGLSIGDVAKKLGEMWNNTAADDKQPYEKKAAKLKEKYEKDIAAYRAKGKPDAAKKGVVKAEKSKKKKEEEEDEEDEEDEEEEEDEEDEDEEEDDDDE [HMGB1] | 0.464 | 55.4 °C | 54.4 °C | 0.257 | 3.27 | 2.58 |
| MGKGDPNKPRGKMSSYAFFVQTCREEHKKKHPDSSVNFAEFSKKCSERWKTMSAKEKSKFEDMAKSDKARYDREMKNYVPPKGDKKGKKKDPNAPKRPPSAFFLFCSEHRPKIKSEHPGLSIGDTAKKLGEMWSEQSAKDKQPYEQKAAKLKEKYEKDIAAYRAKGKSEAGKKGPGRPTGSKKKNEPEDEEEEEEEEDEDEEEEDEDEE [HMGB2] | 0.485 | 58.1 °C | 56.7 °C | 0.338 | 0.292 | -0.27 |
| MGKIALQLKATLENITNLRPVGEDFRWYLKMKCGNCGEISDKWQYIRLMDSVALKGGRGSASMVQKCKLCARENSIEILSSTIKPYNAEDNENFKTIVEFECRGLEPVDFQPQAGFAAEGVESGTAFSDINLQEKDWTDYDEKAQESVGIYEVTHQFVKC [C1ORF123] | -0.207 | 52.2 °C | 52.1 °C | -0.125 | -0.132 | 0.084 |
| MGKKQKNKSEDSTKDDIDLDALAAEIEGAGAAKEQEPQKSKGKKKKEKKKQDFDEDDILKELEELSLEAQGIKADRETVAVKPTENNEEEFTSKDKKKKGQKGKKQSFDDNDSEELEDKDSKSKKTAKPKVEMYSGSDDDDDFNKLPKKAKGKAQKSNKKWDGSEEDEDNSKKIKERSRINSSGESGDESDEFLQSRKGQKKNQKNKPGPNIESGNEDDDASFKIKTVAQKKAEKKERERKKRDEEKAKLRKLKEKEELETGKKDQSKQKESQRKFEEETVKSKVTVDTGVIPASEEKAETPTAAEDDNEGDKKKKDKKKKKGEKEEKEKEKKKGPSKATVKAMQEALAKLKEEEERQKREEEERIKRLEELEAKRKEEERLEQEKRERKKQKEKERKERLKKEGKLLTKSQREARARAEATLKLLQAQGVEVPSKDSLPKKRPIYEDKKRKKIPQQLESKEVSESMELCAAVEVMEQGVPEKEETPPPVEPEEEEDTEDAGLDDWEAMASDEETEKVEGNKVHIEVKENPEEEEEEEEEEEEDEESEEEEEEEGESEGSEGDEEDEKVSDEKDSGKTLDKKPSKEMSSDSEYDSDDDRTKEERAYDKAKRRIEKRRLEHSKNVNTEKLRAPIICVLGHVDTGKTKILDKLRHTHVQDGEAGGITQQIGATNVPLEAINEQTKMIKNFDRENVRIPGMLIIDTPGHESFSNLRNRGSSLCDIAILVVDIMHGLEPQTIESINLLKSKKCPFIVALNKIDRLYDWKKSPDSDVAATLKKQKKNTKDEFEERAKAIIVEFAQQGLNAALFYENKDPRTFVSLVPTSAHTGDGMGSLIYLLVELTQTMLSKRLAHCEELRAQVMEVKALPGMGTTIDVILINGRLKEGDTIIVPGVEGPIVTQIRGLLLPPPMKELRVKNQYEKHKEVEAAQGVKILGKDLEKTLAGLPLLVAYKEDEIPVLKDELIHELKQTLNAIKLEEKGVYVQASTLGSLEALLEFLKTSEVPYAGINIGPVHKKDVMKASVMLEHDPQYAVILAFDVRIERDAQEMADSLGVRIFSAEIIYHLFDAFTKYRQDYKKQKQEEFKHIAVFPCKIKILPQYIFNSRDPIVMGVTVEAGQVKQGTPMCVPSKNFVDIGIVTSIEINHKQVDVAKKGQEVCVKIEPIPGESPKMFGRHFEATDILVSKISRQSIDALKDWFRDEMQKSDWQLIVELKKVFEII [EIF5B] | -0.19 | 51.5 °C | 51.6 °C | 0.0872 | 1.35 | 2.42 |
| MGKKSRAVPGRRPILQLSPPGPRGSTPGRDPEPEPDTEPDSTAAVPSQPAPSAATTTTTAVTAAAASDDSPSEDEQEAVQEVPRVVQNPPKPVMTTRPTAVKATGGLCLLGAYADSDDDDNDVSEKLAQSKETNGNQSTDIDSTLANFLAEIDAITAPQPAAPVGASAPPPTPPRPEPKEAATSTLSSSTSNGTDSTQTSGWQYDTQCSLAGVGIEMGDWQEVWDENTGCYYYWNTQTNEVTWELPQYLATQVQGLQHYQPSSVPGAETSFVVNTDIYSKEKTISVSSSKSGPVIAKREVKKEVNEGIQALSNSEEEKKGVAASLLAPLLPEGIKEEEERWRRKVICKEEPVSEVKETSTTVEEATTIVKPQEIMLDNIEDPSQEDLCSVVQSGESEEEEEQDTLELELVLERKKAELRALEEGDGSVSGSSPRSDISQPASQDGMRRLMSKRGKWKMFVRATSPESTSRSSSKTGRDTPENGETAIGAENSEKIDENSDKEMEVEESPEKIKVQTTPKVEEEQDLKFQIGELANTLTSKFEFLGINRQSISNFHVLLLQTETRIADWREGALNGNYLKRKLQDAAEQLKQYEINATPKGWSCHWDRDHRRYFYVNEQSGESQWEFPDGEEEEEESQAQENRDETLAKQTLKDKTGTDSNSTESSETSTGSLCKESFSGQVSSSSLMPLTPFWTLLQSNVPVLQPPLPLEMPPPPPPPPESPPPPPPPPPPAEDGEIQEVEMEDEGSEEPPAPGTEEDTPLKPSAQTTVVTSQSSVDSTISSSSSTKGIKRKATEISTAVVQRSATIGSSPVLYSQSAIATGHQAAGIGNQATGIGHQTIPVSLPAAGMGHQARGMSLQSNYLGLAAAPAIMSYAECSVPIGVTAPSLQPVQARGAVPTATIIEPPPPPPPPPPPPPPAPKMPPPEKTKKGRKDKAKKSKTKMPSLVKKWQSIQRELDEEDNSSSSEEDRESTAQKRIEEWKQQQLVSGMAERNANFEALPEDWRARLKRRKMAPNT [FNBP4] | -0.323 | 62.5 °C | 62.1 °C | 0.168 | -4.32 | -4.84 |
| MGKRDRADRDKKKSRKRHYEDEEDDEEDAPGNDPQEAVPSAAGKQVDESGTKVDEYGAKDYRLQMPLKDDHTSRPLWVAPDGHIFLEAFSPVYKYAQDFLVAIAEPVCRPTHVHEYKLTAYSLYAAVSVGLQTSDITEYLRKLSKTGVPDGIMQFIKLCTVSYGKVKLVLKHNRYFVESCHPDVIQHLLQDPVIRECRLRNSEGEATELITETFTSKSAISKTAESSGGPSTSRVTDPQGKSDIPMDLFDFYEQMDKDEEEEEETQTVSFEVKQEMIEELQKRCIHLEYPLLAEYDFRNDSVNPDINIDLKPTAVLRPYQEKSLRKMFGNGRARSGVIVLPCGAGKSLVGVTAACTVRKRCLVLGNSAVSVEQWKAQFKMWSTIDDSQICRFTSDAKDKPIGCSVAISTYSMLGHTTKRSWEAERVMEWLKTQEWGLMILDEVHTIPAKMFRRVLTIVQAHCKLGLTATLVREDDKIVDLNFLIGPKLYEANWMELQNNGYIAKVQCAEVWCPMSPEFYREYVAIKTKKRILLYTMNPNKFRACQFLIKFHERRNDKIIVFADNVFALKEYAIRLNKPYIYGPTSQGERMQILQNFKHNPKINTIFISKVGDTSFDLPEANVLIQISSHGGSRRQEAQRLGRVLRAKKGMVAEEYNAFFYSLVSQDTQEMAYSTKRQRFLVDQGYSFKVITKLAGMEEEDLAFSTKEEQQQLLQKVLAATDLDAEEEVVAGEFGSRSSQASRRFGTMSSMSGADDTVYMEYHSSRSKAPSKHVHPLFKRFRK [ERCC3] | -0.561 | 47.9 °C | 49.6 °C | -0.0174 | 0.89 | 1.14 |
| MGLAGVCALRRSAGYILVGGAGGQSAAAAARRYSEGEWASGGVRSFSRAAAAMAPIKVGDAIPAVEVFEGEPGNKVNLAELFKGKKGVLFGVPGAFTPGCSKTHLPGFVEQAEALKAKGVQVVACLSVNDAFVTGEWGRAHKAEGKVRLLADPTGAFGKETDLLLDDSLVSIFGNRRLKRFSMVVQDGIVKALNVEPDGTGLTCSLAPNIISQL [PRDX5] | 0.582 | 55.9 °C | 55.9 °C | 0.124 | -1.13 | -2.67 |
| MGLETEKADVQLFMDDDSYSHHSGLEYADPEKFADSDQDRDPHRLNSHLKLGFEDVIAEPVTTHSFDKVWICSHALFEISKYVMYKFLTVFLAIPLAFIAGILFATLSCLHIWILMPFVKTCLMVLPSVQTIWKSVTDVIIAPLCTSVGRCFSSVSLQLSQD [CAV2] | -0.178 | 56.1 °C | 56.9 °C | -0.0267 | -1.45 | -2.03 |
